{"source": "patent US20250076311A1", "about": "(Chugai, published 2025)", "binders": {"B1": {"name": "M103205H795-MY265/M103202L889-SK1 (antibody, human IgG1, kappa, name in EU numbering)", "heavy": "QVTLKESGPVLVKPTETLTLTCTVSGIDLSHDDISWVRQAPGKGLEWVGIISYAGSTYYASWAKGRLTISKDTSKNQVVLTMTNMDPVDTATYYCARGVPAYSHGGDLWGQGTLVTVSSASTKGPSVFPLAPSSKSTSGGTAALGCLVKDYFPEPVTVSWNSGALTSGVHTFPAVLQSSGLYSLSSVVTVPSSSLGTQTYICNVNHKPSNTKVDKKVEPKSCDKTHTCPPCPAPELLTGPSVFLFPPKPKDTLMISRTPEVTCVVVDVSDEDPEVKFNWYVDGVEVHNAKTKPREEQYNSTYRVVSVLTVLHQDWLNGKEYKCKVSNKALPKPIEKTISKAKGQPREPQVYTLPPSREEMTKNQVSLTCLVKGFYPSDIAVEWESNGQPENNYKTTPPVLDSDGSFFLYSKLTVDKSRWQQGNVFSCSVMHEALHNHYTQKSLSLSP", "light": "DIVMTQSPATLSLSPGERATLSCTSSQSVYHANWLSWFQQKPGQPPKLLIYWASTLAYGVPSRFSGSGSGTDFTLTISSLQPEDAATYYCAGGYGGGRYAFGQGTKVEIKRTVAAPSVFIFPPSDEQLKSGTASVVCLLNNFYPREAKVQWKVDNALQSGNSQESVTEQDSKDSTYSLSSTLTLSKADYEKHKVYACEVTHQGLSSPVTKSFNRGEC", "notes": "also called MS1032LO06-MY265"}, "B2": {"name": "M103205H795-MY447/M103202L889-SK1 (antibody, human IgG1, kappa)", "heavy": "QVTLKESGPVLVKPTETLTLTCTVSGIDLSHDDISWVRQAPGKGLEWVGIISYAGSTYYASWAKGRLTISKDTSKNQVVLTMTNMDPVDTATYYCARGVPAYSHGGDLWGQGTLVTVSSASTKGPSVFPLAPSSKSTSGGTAALGCLVKDYFPEPVTVSWNSGALTSGVHTFPAVLQSSGLYSLSSVVTVPSSSLGTQTYICNVNHKPSNTKVDKKVEPKSCDKTHTCPPCPAIELLTGPSVFLFPPKPKDTLMISRTPEVTCVVVDVSDEDPEVKFNWYVDGVEVHNAKTKPREEQYNSTYRVVSVLTVLHQDWLNGKEYKCKVSNKALPKPIEKTISKAKGQPREPQVYTLPPSREEMTKNQVSLTCLVKGFYPSDIAVEWESNGQPENNYKTTPPVLDSDGSFFLYSKLTVDKSRWQQGNVFSCSVMHEALHNHYTQKSLSLSP", "light": "DIVMTQSPATLSLSPGERATLSCTSSQSVYHANWLSWFQQKPGQPPKLLIYWASTLAYGVPSRFSGSGSGTDFTLTISSLQPEDAATYYCAGGYGGGRYAFGQGTKVEIKRTVAAPSVFIFPPSDEQLKSGTASVVCLLNNFYPREAKVQWKVDNALQSGNSQESVTEQDSKDSTYSLSSTLTLSKADYEKHKVYACEVTHQGLSSPVTKSFNRGEC", "notes": "Substitutions in EU numbering on SG1"}, "B3": {"name": "M103205H795-MY141/M103202L889-SK1 (antibody, human IgG1, kappa, name in EU numbering)", "heavy": "QVTLKESGPVLVKPTETLTLTCTVSGIDLSHDDISWVRQAPGKGLEWVGIISYAGSTYYASWAKGRLTISKDTSKNQVVLTMTNMDPVDTATYYCARGVPAYSHGGDLWGQGTLVTVSSASTKGPSVFPLAPSSKSTSGGTAALGCLVKDYFPEPVTVSWNSGALTSGVHTFPAVLQSSGLYSLSSVVTVPSSSLGTQTYICNVNHKPSNTKVDKKVEPKSCDKTHTCPPCPAPELLNGPSVFLFPPKPKDTLMISRTPEVTCVVVDVAHEDPEVKFNWYVDGVEVHNAKTKPREEQYNSTYRVVSVLTVLHQDWLNGKEYKCKVSNKALPAPIEKTISKAKGQPREPQVYTLPPSREEMTKNQVSLTCLVKGFYPSDIAVEWESNGQPENNYKTTPMVLDSDGSFFLYSKLTVDKSRWQQGNVFSCSVMHEALHNHYTQKSLSLSP", "light": "DIVMTQSPATLSLSPGERATLSCTSSQSVYHANWLSWFQQKPGQPPKLLIYWASTLAYGVPSRFSGSGSGTDFTLTISSLQPEDAATYYCAGGYGGGRYAFGQGTKVEIKRTVAAPSVFIFPPSDEQLKSGTASVVCLLNNFYPREAKVQWKVDNALQSGNSQESVTEQDSKDSTYSLSSTLTLSKADYEKHKVYACEVTHQGLSSPVTKSFNRGEC", "notes": "Fc variant of MS1032LO06-SG1; positions in EU numbering"}}, "key": {"[1]": {"molecular_target": "T1, cynomolgus monkey FcγRIIa3 extracellular domain, His-tagged (cynomolgus monkey)", "T1 construct": "also called cyno FcgRIIa3; cynoFcγRIIa3; not shown: His-tag added to the C-terminus", "T1 chain": "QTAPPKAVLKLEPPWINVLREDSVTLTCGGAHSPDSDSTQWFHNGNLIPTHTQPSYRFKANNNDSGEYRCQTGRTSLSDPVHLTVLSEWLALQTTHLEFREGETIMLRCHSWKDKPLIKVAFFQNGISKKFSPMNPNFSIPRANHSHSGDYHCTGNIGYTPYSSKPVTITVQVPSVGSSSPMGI", "assay": "SPR (BIACORE), antibody captured on chip, soluble FcgR as analyte, 25 C", "experimental": "(§1) The kinetic analysis of interactions between these antibodies and FcγR was carried out using BIACORE® T200 or BIACORE® 4000 (GE Healthcare). HBS-EP+ (GE Healthcare) was used as the running buffer, and the measurement temperature was set to 25° C. […] After the measurement, the antibody captured on the chip was washed off by allowing reaction with 10 mM glycine-HCl, pH1.5 and 25 mM NaOH so that the chip was regenerated and used repeatedly. The sensorgrams obtained as measurement results were analyzed by the 1:1 Langmuir binding model using the BIACORE® Evaluation Software to calculate the binding rate constant ka (L/mol/s) and dissociation rate constant kd (1/s), and the dissociation constant KD (mol/L) was calculated from these values. […] Regarding such interactions, KD values were calculated using the following 1:1 binding model described in BIACORE® T100 Software Handbook BR1006-48 Edition AE."}, "[2]": {"molecular_target": "T2, human FcγRIIb extracellular domain, His-tagged (human, UniProt P31994 43-217)", "T2 construct": "also called human FcgRIIb; not shown: His-tag added to the C-terminus", "T2 sequence": "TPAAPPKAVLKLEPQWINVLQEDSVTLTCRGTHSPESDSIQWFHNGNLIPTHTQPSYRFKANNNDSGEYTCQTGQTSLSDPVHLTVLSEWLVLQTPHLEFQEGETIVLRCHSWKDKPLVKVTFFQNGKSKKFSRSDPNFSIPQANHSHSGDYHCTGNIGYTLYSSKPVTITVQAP", "assay": "SPR (BIACORE), antibody captured on chip, soluble FcgR as analyte, 25 C", "experimental": "as §1"}, "[3]": {"molecular_target": "T3, cynomolgus monkey FcγRIIa2 extracellular domain with C-terminal His-tag (cynomolgus monkey)", "T3 construct": "also called cyno FcgRIIa2; cynoFcγRIIa2", "T3 chain": "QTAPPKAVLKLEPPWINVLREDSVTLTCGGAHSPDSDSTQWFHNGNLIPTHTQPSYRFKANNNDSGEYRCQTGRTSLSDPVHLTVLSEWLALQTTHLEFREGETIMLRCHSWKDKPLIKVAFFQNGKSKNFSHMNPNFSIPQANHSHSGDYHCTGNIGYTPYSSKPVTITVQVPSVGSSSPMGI", "assay": "SPR (Biacore), KD of SG1 / KD of variant"}, "[4]": {"molecular_target": "T4, cynomolgus monkey FcγRIIa3 extracellular domain with C-terminal His-tag (cynomolgus monkey)", "T4 construct": "also called cyno FcgRIIa3; cynoFcγRIIa3", "T4 chain": "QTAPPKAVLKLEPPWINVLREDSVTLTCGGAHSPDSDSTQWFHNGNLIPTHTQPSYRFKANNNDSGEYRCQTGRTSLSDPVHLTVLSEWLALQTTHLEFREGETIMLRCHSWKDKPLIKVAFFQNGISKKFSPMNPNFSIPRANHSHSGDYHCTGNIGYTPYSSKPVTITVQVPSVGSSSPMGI", "assay": "SPR (Biacore), antibody captured, FcgR analyte"}, "[5]": {"molecular_target": "T5, cynomolgus monkey FcγRIIa3 extracellular domain with C-terminal His-tag (cynomolgus monkey)", "T5 construct": "also called cyno FcgRIIa3; cynoFcγRIIa3; not shown: His-tag added to the C-terminus", "T5 chain": "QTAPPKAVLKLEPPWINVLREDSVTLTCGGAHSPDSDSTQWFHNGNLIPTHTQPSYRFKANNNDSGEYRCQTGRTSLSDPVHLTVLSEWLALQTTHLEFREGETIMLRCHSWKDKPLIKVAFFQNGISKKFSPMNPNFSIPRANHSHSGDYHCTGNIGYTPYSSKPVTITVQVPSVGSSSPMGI", "assay": "SPR (BIACORE); KD of SG1 / KD of variant"}, "[6]": {"molecular_target": "T6, cynomolgus monkey FcγRIIIaS extracellular domain with C-terminal His-tag (cynomolgus monkey, UniProt A3RFZ7 21-206 (rhesus entry))", "T6 construct": "also called cyno FcgRIIIaS; cynoFcγRIIIaS; not shown: His-tag added to the C-terminus", "T6 sequence (A3RFZ7 21-206)": "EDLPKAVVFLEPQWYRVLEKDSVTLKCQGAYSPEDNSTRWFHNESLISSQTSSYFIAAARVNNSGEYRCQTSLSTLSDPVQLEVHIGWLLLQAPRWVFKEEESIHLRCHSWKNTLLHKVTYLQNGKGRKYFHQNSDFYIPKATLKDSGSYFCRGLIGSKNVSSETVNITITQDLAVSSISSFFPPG", "assay": "SPR (BIACORE); KD of SG1 / KD of variant"}, "[7]": {"molecular_target": "T7, human FcγRIIaH extracellular domain with C-terminal His-tag (human, UniProt P12318 34-217)", "T7 construct": "also called human FcgRIIaH; FcγRIIa type H; not shown: His-tag added to the C-terminus", "T7 sequence": "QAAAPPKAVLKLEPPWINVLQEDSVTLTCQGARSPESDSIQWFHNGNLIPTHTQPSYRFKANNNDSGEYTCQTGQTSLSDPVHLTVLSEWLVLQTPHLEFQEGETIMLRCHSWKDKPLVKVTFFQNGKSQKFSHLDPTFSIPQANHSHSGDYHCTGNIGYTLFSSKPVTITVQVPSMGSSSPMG", "assay": "SPR (BIACORE); KD of SG1 / KD of variant"}, "[8]": {"molecular_target": "T8, cynomolgus monkey FcγRIIa1 extracellular domain with C-terminal His-tag (cynomolgus monkey)", "T8 construct": "also called cyno FcgRIIa1; cynoFcγRIIa1; not shown: His-tag added to the C-terminus", "T8 chain": "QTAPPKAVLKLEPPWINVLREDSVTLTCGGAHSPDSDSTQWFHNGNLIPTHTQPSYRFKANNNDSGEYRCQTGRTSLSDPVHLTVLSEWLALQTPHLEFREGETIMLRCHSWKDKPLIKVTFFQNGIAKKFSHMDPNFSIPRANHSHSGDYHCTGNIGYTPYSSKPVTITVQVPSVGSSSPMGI", "assay": "SPR (BIACORE), antibody captured, FcgR analyte"}, "[9]": {"molecular_target": "T6, cynomolgus monkey FcγRIIIaS …", "assay": "SPR (BIACORE), antibody captured, FcgR analyte"}, "[10]": {"molecular_target": "T7, human FcγRIIaH extracellular domain …", "assay": "SPR (BIACORE), antibody captured, FcgR analyte"}}, "data": [{"binder": "B1", "values": [{"measurement": "Kd", "setting": "[1]", "value": 43, "unit": "µM"}, {"measurement": "Kd", "setting": "[2]", "value": 2.7, "unit": "µM"}]}, {"binder": "B2", "values": [{"measurement": "KD fold (SG1 = 1)", "setting": "[3]", "value": 5.6, "unit": "fold"}, {"measurement": "Kd", "setting": "[4]", "value": 1.5, "unit": "µM"}]}, {"binder": "B3", "values": [{"measurement": "KD fold (SG1 = 1)", "setting": "[5]", "value": 0.5, "unit": "fold"}, {"measurement": "KD fold (SG1 = 1)", "setting": "[6]", "value": 0.08, "unit": "fold"}, {"measurement": "KD fold (SG1 = 1)", "setting": "[7]", "value": 0.6, "unit": "fold"}, {"measurement": "Kd", "setting": "[8]", "value": 2.2, "unit": "µM"}, {"measurement": "Kd", "setting": "[9]", "value": 4.7, "unit": "µM"}, {"measurement": "Kd", "setting": "[10]", "value": 1.3, "unit": "µM"}]}]}
